The record followed here is PMC3778244 (Genes & Development, 2013).

The target in test [1] is T1, Poz1 (recombinant) (S. pombe, UniProt O13852 1-249).
T1 sequence: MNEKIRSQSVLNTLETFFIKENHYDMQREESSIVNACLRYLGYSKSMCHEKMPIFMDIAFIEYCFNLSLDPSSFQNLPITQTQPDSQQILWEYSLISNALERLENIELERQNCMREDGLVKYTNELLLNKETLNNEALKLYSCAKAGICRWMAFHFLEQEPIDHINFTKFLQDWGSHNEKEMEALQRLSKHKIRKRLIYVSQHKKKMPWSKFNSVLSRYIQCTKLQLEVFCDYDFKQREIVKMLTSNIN
As to the kind of experiment: pull-down.

For test [2], the target named is T2, Ccq1 N-terminal domain (Ccq1-NTD; residues 2-439) (S. pombe, UniProt Q10432 2-439).
T2 sequence: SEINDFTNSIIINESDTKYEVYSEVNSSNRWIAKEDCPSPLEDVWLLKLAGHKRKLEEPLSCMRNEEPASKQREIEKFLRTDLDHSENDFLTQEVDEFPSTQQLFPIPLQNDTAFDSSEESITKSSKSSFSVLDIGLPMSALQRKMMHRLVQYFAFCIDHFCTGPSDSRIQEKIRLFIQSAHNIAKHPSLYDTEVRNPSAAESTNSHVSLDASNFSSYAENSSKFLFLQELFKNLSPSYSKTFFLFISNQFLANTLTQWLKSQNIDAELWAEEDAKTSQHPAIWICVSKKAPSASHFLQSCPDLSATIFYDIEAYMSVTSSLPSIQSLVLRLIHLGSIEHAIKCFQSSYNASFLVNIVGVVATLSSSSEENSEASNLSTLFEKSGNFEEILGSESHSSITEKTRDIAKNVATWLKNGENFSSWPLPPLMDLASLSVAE
Nature of the test: pull-down.

B1: GST-Tpz1-CTD (Tpz1 C-terminal domain, residues 406-508) (domain or fragment)
chain: SSVISCTPPAINFTSDICNEQIELEYKRKPIPDYDFMKGLETTLQELYVEHQSKKRRLELFQLTNNHQKNSEACEMCRLGLPHGSFFELLRDWKKIEEFRNKS
Consider B1, for which the binding result in test [1] and in test [2] was “binds” in each case.

B2: GST-Tpz1-CTD L449A (domain or fragment)
chain: SSVISCTPPAINFTSDICNEQIELEYKRKPIPDYDFMKGLETTAQELYVEHQSKKRRLELFQLTNNHQKNSEACEMCRLGLPHGSFFELLRDWKKIEEFRNKS
As for B2, the binding result in test [1] was “binds”.

B3: GST-Tpz1-CTD I501R (domain or fragment)
chain: SSVISCTPPAINFTSDICNEQIELEYKRKPIPDYDFMKGLETTLQELYVEHQSKKRRLELFQLTNNHQKNSEACEMCRLGLPHGSFFELLRDWKKREEFRNKS
As for B3, the binding result in test [2] was “binds”.
